Reference: PMC6938032 (2020)

T1: Neutrophil elastase (Homo sapiens, UniProt P08246)
T1 chain: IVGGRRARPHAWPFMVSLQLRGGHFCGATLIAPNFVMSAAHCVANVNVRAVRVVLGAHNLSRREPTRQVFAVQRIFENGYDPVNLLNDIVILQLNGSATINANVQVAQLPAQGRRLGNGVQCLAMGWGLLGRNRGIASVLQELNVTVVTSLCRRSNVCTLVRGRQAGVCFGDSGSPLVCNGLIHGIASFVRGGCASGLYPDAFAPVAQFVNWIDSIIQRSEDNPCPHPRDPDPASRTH

B1: EapH2 (protein)
chain: AEKDKLPATQKAKEMQNVPYTIAVDGIMAFNQSYLNLPKDSQLSYLDLGNKVKALLYDERGVTPEKIRNAKSAVYTITWKDGSKKEVDLKKDSYTANLFDSNSIKQIDINVKTK

Assays:
[1] = molecular target: Neutrophil elastase (Homo sapiens) (UniProt P08246); test: progress curve inhibition analysis; conditions: cited from earlier work
Neutrophil elastase [2] = molecular target: T1, Neutrophil elastase; test: SPR
Neutrophil elastase [3] = molecular target: T1, Neutrophil elastase; test: progress curve inhibition analysis

Molecule	Ki [1] [nM]	Kd (Neutrophil elastase [2]) [nM]	Ki (Neutrophil elastase [3]) [nM]
EapH1 (from UniProt A0A0H3KEC5)	0.021	–	–
B1	–	2.16	2.11
